For assay [1], the target named is T1, yeast actin monomers (yeast (S. cerevisiae), UniProt P60010 1-375). Briefly: co-sedimentation.
Assay [2] has as its target T1, yeast actin monomers. As to the kind of experiment: co-sedimentation. This is another data set of the same source.

Like-named read-outs stand apart in the source and are kept apart here.

B1: full-length twinfilin (yeast, recombinant) (natural protein)
chain: MATQSGIVAEQALLHSLNENLSADGIVIIIAKISPDSTSVHQTQVARSFEELVQLASQEREPLYIFYKPEGLDKYFFVSFIPDGSPVRSRMLYASTKNTLARQVGSNSLSTEQPLITDAQDLVDLKNFDSARPAGQNKPLTHDEEMQIEINKQQALLRKNTSVKLVSQDSASPLSLTFRVNSEKPINEILDSEGKNLIIFQIDPSNETIQIVQSDTCPSVDELYIDLPGPSYTIFRQGDSSFFIYSCPSGSKVKDRMIYASNKNGFINYLKNDQKIAFSKVVEIGDFVELDKSLLMATNKEDSLDHGSNPDLPNKSNLKFNKPKGPLRKRRT
Regarding B1, the “stoichiometry N” value is 1 twinfilin:actin with yeast actin monomers [1] and ~1 twinfilin:actin with yeast actin monomers [2].

The values above are taken from publication PMC2148182 (The Journal of Cell Biology, 1998).
